Where a chain is given by its changes, count along the chain named. Numbers in names are those of the source.

The text below walks through data of paper PMC9709071.

Data set [1] has as its target T1, Recombinant DR3-Fc, Q93038.
T1 chain: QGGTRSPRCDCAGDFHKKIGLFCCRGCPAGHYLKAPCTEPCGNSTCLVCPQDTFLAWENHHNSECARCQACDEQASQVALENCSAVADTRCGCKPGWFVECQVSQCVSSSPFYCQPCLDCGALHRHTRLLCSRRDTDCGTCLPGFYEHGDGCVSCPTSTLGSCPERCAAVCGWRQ
As to the kind of experiment: ELISA. As to conditions: chain shown with the change; value read at the highest DR3-Fc concentration point, about 1000 nM; parent: est. 130; read off a plot. Background: In an ELISA, binding on a coated surface is turned into a signal by an enzyme label.

The conditions of data set [2]: glycan lost; control: wild type.
Data set [3] in a line: recombinant expression, Expi293. To be noted: glycan lost; control: wild type.
Data set [4] deals with Fc-His-TL1A (TL1W61) (human). As to the kind of experiment: ELISA; reversed format: TL1A molecules immobilised, DR3 titrated.

B1: His-TL1A (TL1W2), O95150 C162S (protein)
chain: MAEDLGLSFGETASVEMLPEHGSCRPKARSSSARWALTCCLVLLPFLAGLTTYLLVSQLRAQGEACVQFQALKGQEFAPSHQQVYAPLRADGDKPRAHLTVVRQTPTQHFKNQFPALHWEHELGLAFTKNRMNYTNKFLLIPESGDYFIYSQVTFRGMTSESSEIRQAGRPNKPDSITVVITKVTDSYPEPTQLLMGTKSVCEVGSNWFQPIYLGAMFSLQEGDKLMVNVSDISLVDYTKEDKTFFGAFLL
For the molecule B1, in data set [1], the response (x 10^6 chemiluminescence) turned out to be 10.

B2: TL1A (TNFSF15): N133Q (protein)
parent chain: B1 chain with S162C
For B2, in data set [2], the “other: solubility” value is reported as “no change”. Besides, in data set [3], the expression_or_secretion result is reported as “no change”.

B3: His-TL1A (TL1W2), O95150 C202S (protein)
chain: B1 chain with S162C, C202S
As for B3, the response (x 10^6 chemiluminescence) in data set [1] is 9.

B4: His-TL1A (TL1W2), O95150 C162L; C202L (protein)
chain: VYAPLRADGDKPRAHLTVVRQTPTQHFKNQFPALHWEHELGLAFTKNRMNYTNKFLLIPESGDYFIYSQVTFRGMTSELSEIRQAGRPNKPDSITVVITKVTDSYPEPTQLLMGTKSVLEVGSNWFQPIYLGAMFSLQEGDKLMVNVSDISLVDYTKEDKTFFGAFLL
Take B4: the response (x 10^6 chemiluminescence) in data set [1] stood at 21.

B5: Recombinant DR3-Fc (Fc fusion)
chain: T1 chain
The term EC50 denotes the concentration that produces a half-maximal response. B5 yielded an EC50 in data set [4] of 2.2 nM.
